# Test results taken from the supplement of paper PMC10567573.
# B1: ZNF75A (parent)
# chain: RTHTGEQPYTCSICRRNFSRRSSL
# Variants of: B1
# Experiment: protein stability index of a GFP-peptide fusion (GPS, HEK-293T) (PSI 1-6); higher = more stable
# Settings: c terminus: a fixed tail appended
# 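Also: lentivirally expressed fusions sorted by FACS into six bins by GFP to DsRed ratio, PSI derived from sequencing read proportions per bin multiplied by bin number.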
row,Variant,protein stability index
1,RTHTGEQPFTCSICRRNFSRRSSL [Y9F],2.64
2,RTHTGEQPGTCSICRRNFSRRSSL [Y9G],3.29
3,RTHTGEQPHTCSICRRNFSRRSSL [Y9H],3.02
4,RTHTGEQPRTCSICRRNFSRRSSL [Y9R],2.46
5,RTHTGEQPTTCSICRRNFSRRSSL [Y9T],2.51
6,RTHTGEQPVTCSICRRNFSRRSSL [Y9V],2.58
7,RTHTGEQPNTCSICRRNFSRRSSL [Y9N],2.56
8,RTHTGEQPETCSICRRNFSRRSSL [Y9E],3.15
9,RTHTGEQPDTCSICRRNFSRRSSL [Y9D],2.92
10,RTHTGEQPQTCSICRRNFSRRSSL [Y9Q],2.32
11,RTHTGEQPCTCSICRRNFSRRSSL [Y9C],4.17
12,RTHTGEQPITCSICRRNFSRRSSL [Y9I],2.71
13,RTHTGEQPPTCSICRRNFSRRSSL [Y9P],2.69
14,RTHTGEQPMTCSICRRNFSRRSSL [Y9M],2.27
15,RTHTGEQPWTCSICRRNFSRRSSL [Y9W],3.02
16,RTHTGEQPLTCSICRRNFSRRSSL [Y9L],2.39
17,RTHTGEQPKTCSICRRNFSRRSSL [Y9K],2.17
18,RTHTGEQPSTCSICRRNFSRRSSL [Y9S],2.55
19,RTHTGEQPATCSICRRNFSRRSSL [Y9A],2.68
20,WTHTGEQPYTCSICRRNFSRRSSL [R1W],2.67
21,YTHTGEQPYTCSICRRNFSRRSSL [R1Y],2.46
22,PTHTGEQPYTCSICRRNFSRRSSL [R1P],3.15
23,STHTGEQPYTCSICRRNFSRRSSL [R1S],3.07
24,TTHTGEQPYTCSICRRNFSRRSSL [R1T],3.14

row,Variant,protein stability index
1,QTHTGEQPYTCSICRRNFSRRSSL [R1Q],2.4
2,VTHTGEQPYTCSICRRNFSRRSSL [R1V],2.26
3,NTHTGEQPYTCSICRRNFSRRSSL [R1N],3.26
4,MTHTGEQPYTCSICRRNFSRRSSL [R1M],2.33
5,RTHCGEQPYTCSICRRNFSRRSSL [T4C],2.15
6,RTHEGEQPYTCSICRRNFSRRSSL [T4E],3.27
7,RTHMGEQPYTCSICRRNFSRRSSL [T4M],2.66
8,RTHKGEQPYTCSICRRNFSRRSSL [T4K],2.77
9,RTHSGEQPYTCSICRRNFSRRSSL [T4S],3.14
10,RTHPGEQPYTCSICRRNFSRRSSL [T4P],2.4
11,RTHVGEQPYTCSICRRNFSRRSSL [T4V],3.29
12,RTHIGEQPYTCSICRRNFSRRSSL [T4I],3.36
13,RTHGGEQPYTCSICRRNFSRRSSL [T4G],2.91
14,RTHQGEQPYTCSICRRNFSRRSSL [T4Q],2.33
15,RTHFGEQPYTCSICRRNFSRRSSL [T4F],3.28
16,RTHAGEQPYTCSICRRNFSRRSSL [T4A],2.8
17,RTHDGEQPYTCSICRRNFSRRSSL [T4D],3.31
18,RTHRGEQPYTCSICRRNFSRRSSL [T4R],3.08
19,RTHYGEQPYTCSICRRNFSRRSSL [T4Y],3.04
20,RTHHGEQPYTCSICRRNFSRRSSL [T4H],3.03
21,RTHNGEQPYTCSICRRNFSRRSSL [T4N],3.85
22,RTHLGEQPYTCSICRRNFSRRSSL [T4L],2.96
23,RTHWGEQPYTCSICRRNFSRRSSL [T4W],2.1
24,RTHTGEQPYTASICRRNFSRRSSL [C11A],3.92

row,Variant,protein stability index
1,RTHTGEQPYTDSICRRNFSRRSSL [C11D],4.34
2,RTHTGEQPYTHSICRRNFSRRSSL [C11H],3.94
3,RTHTGEQPYTLSICRRNFSRRSSL [C11L],3.61
4,RTHTGEQPYTGSICRRNFSRRSSL [C11G],3.37
5,RTHTGEQPYTESICRRNFSRRSSL [C11E],4.09
6,RTHTGEQPYTFSICRRNFSRRSSL [C11F],3.73
7,RTHTGEQPYTKSICRRNFSRRSSL [C11K],3.93
8,RTHTGEQPYTISICRRNFSRRSSL [C11I],3.79
9,RTWTGEQPYTCSICRRNFSRRSSL [H3W],2.15
10,RTKTGEQPYTCSICRRNFSRRSSL [H3K],3.06
11,RTYTGEQPYTCSICRRNFSRRSSL [H3Y],2.73
12,RTLTGEQPYTCSICRRNFSRRSSL [H3L],2.75
13,RTETGEQPYTCSICRRNFSRRSSL [H3E],3.1
14,RTGTGEQPYTCSICRRNFSRRSSL [H3G],2.76
15,RTRTGEQPYTCSICRRNFSRRSSL [H3R],3.47
16,RTSTGEQPYTCSICRRNFSRRSSL [H3S],3.16
17,RTDTGEQPYTCSICRRNFSRRSSL [H3D],3.18
18,RTCTGEQPYTCSICRRNFSRRSSL [H3C],2.85
19,RTPTGEQPYTCSICRRNFSRRSSL [H3P],3.17
20,RTVTGEQPYTCSICRRNFSRRSSL [H3V],2.65
21,RTATGEQPYTCSICRRNFSRRSSL [H3A],2.69
22,RTNTGEQPYTCSICRRNFSRRSSL [H3N],3.82
23,RTTTGEQPYTCSICRRNFSRRSSL [H3T],2.76
24,RTMTGEQPYTCSICRRNFSRRSSL [H3M],2.57

row,Variant,protein stability index
1,RTFTGEQPYTCSICRRNFSRRSSL [H3F],3.25
2,RTQTGEQPYTCSICRRNFSRRSSL [H3Q],2.64
3,RTITGEQPYTCSICRRNFSRRSSL [H3I],3.08
4,RTHTGEQPYWCSICRRNFSRRSSL [T10W],2.63
5,RTHTGEQPYCCSICRRNFSRRSSL [T10C],2.63
6,RTHTGEQPYLCSICRRNFSRRSSL [T10L],2.88
7,RTHTGEQPYQCSICRRNFSRRSSL [T10Q],2.32
8,RTHTGEQPYPCSICRRNFSRRSSL [T10P],3.09
9,RTHTGEQPYSCSICRRNFSRRSSL [T10S],2.01
10,RTHTGEQPYHCSICRRNFSRRSSL [T10H],2.85
11,RTHTGEQPYKCSICRRNFSRRSSL [T10K],2.43
12,RTHTGEQPYICSICRRNFSRRSSL [T10I],3.52
13,RTHTGEQPYACSICRRNFSRRSSL [T10A],2.85
14,RTHTGEQPYGCSICRRNFSRRSSL [T10G],2.18
15,RTHTGEQPYDCSICRRNFSRRSSL [T10D],3.48
16,RTHTGEQPYMCSICRRNFSRRSSL [T10M],3.48
17,RTHTGEQPYFCSICRRNFSRRSSL [T10F],2.71
18,RTHTGEQPYRCSICRRNFSRRSSL [T10R],2.57
19,RTHTGEQPYVCSICRRNFSRRSSL [T10V],3.85
20,RTHTGEQPYECSICRRNFSRRSSL [T10E],2.37
21,RTHTGEQPYYCSICRRNFSRRSSL [T10Y],2.5
22,RTHTGEQPYNCSICRRNFSRRSSL [T10N],2.67
